Starred links: 1 amine or outer side, 2 acyl side, 3 side chain; linkers in the order of their positions; H or OH if unused. Positions of bridges follow the written chain, without caps; N, C: chain ends. Non-standard residues stand in square brackets, D forms with d. Primed or numbered codes have the meaning given here. No end group written: not given here. *: point of attachment. azidopropyl = N-terminal modification AzPro, [N-]=[N+]=NCCC*; TATB = O=C(C[*:1])N1CN(C(=O)C[*:2])CN(C(=O)C[*:3])C1; oligonucleotide 1590463 = not defined here; Lys(N3) = [N-]=[N+]=NCCCC[C@H](N)C(=O)O; Hyp = O=C(O)[C@@H]1C[C@@H](O)CN1; azidopropyl″ = [N-]=[N+]=NCCC*; Aze = O=C(O)[C@@H]1CCN1
B1: 1590463-BCY17896 (peptide)
peptide: CPXDAYLGCXSYCX
modifications: not fully specified; as printed CP[HyP]DAYLGC[tBuGly]SYC[K(N3)]: N-terminal acetyl; C-terminal amide; three Cys bound to TATB scaffold; [HyP] 4-trans-hydroxy-L-proline at 3; [tBuGly] t-butyl glycine at 10; [K(N3)] 6-azido lysine at 14 joined via BCN linker to oligonucleotide 1590463
notes: also called Compound No. 1590463 conjugated to BCY17896
B2: 1590463-BCY17901 (peptide)
peptide: CPXDAYLGCXSYCEPWX
modifications: not fully specified; as printed CP[HyP]DAYLGC[tBuGly]SYCEPW[K(N3)]: N-terminal acetyl; C-terminal amide; three Cys bound to TATB scaffold; [HyP] 4-trans-hydroxy-L-proline at 3; [tBuGly] t-butyl glycine at 10; [K(N3)] 6-azido lysine at 17 joined via BCN linker to oligonucleotide 1590463
notes: also called Compound 1590463-BCY17901; Compound No. 1666846
B3: 1590463-BCY17892 (peptide)
peptide: CSPDAHLGCISYCEXWX
modifications: not fully specified; as printed CSPDAHLGCISYCE[Aze]W[K(N3)]: N-terminal acetyl; C-terminal amide; three Cys bound to TATB scaffold; [Aze] azetidine at 15; [K(N3)] 6-azido lysine at 17 joined via BCN linker to oligonucleotide 1590463
notes: also called Compound No. 1590463 conjugated to BCY17892
B4: 1614439-BCY17906 (peptide)
peptide: CSPDAHLGCISYCX
modifications: not fully specified; as printed CSPDAHLGCISYC[K(N3)(PYA-Maleimide)]: N-terminal acetyl; C-terminal amide; three Cys bound to TATB scaffold; modified lysine [K(N3)(PYA-Maleimide)] at 14 joined to oligonucleotide 1614439 (5' 6-mercaptohexanol linker)
notes: the coupling chemistry of this pair is not spelled out; also called Compound No. 1614439 conjugated to BCY17906
B5: 1590463-BCY17894 (peptide)
peptide: CSPDAHLGCISYCEXWX
modifications: not fully specified; as printed CSPDAHLGCISYCE[Pip]W[K(N3)]: N-terminal acetyl; C-terminal amide; three Cys bound to TATB scaffold; [Pip] pipecolic acid at 15; [K(N3)] 6-azido lysine at 17 joined via BCN linker to oligonucleotide 1590463
notes: also called Compound No. 1590463 conjugated to BCY17894
B6: 1590463-BCY17903 (peptide)
peptide: Ac-C[Lys(N3)]PDAHLGCISYC-NH2
modifications: linker 1-9-13 via TATB; not fully specified (residue 2); printed as C[K(N3)]PDAHLGCISYC; also: azide of K(N3) in loop clicked via BCN linker to oligonucleotide 1590463
notes: also called Compound No. 1590463 conjugated to BCY17903
B7: 1590463-BCY17882 (peptide)
peptide: NXNCSPDAHLGCISYCX
modifications: not fully specified; as printed N[dY]NCSPDAHLGCISYC[K(N3)]: N-terminal acetyl; C-terminal amide; three Cys bound to TATB scaffold; [dY] D-tyrosine at 2; [K(N3)] 6-azido lysine at 17 joined via BCN linker to oligonucleotide 1590463
notes: also called Compound No. 1590463 conjugated to BCY17882
B8: 1590463-BCY17905 (peptide)
peptide: Ac-CSPD[Lys(N3)]HLGCISYC-NH2
modifications: linker 1-9-13 via TATB; not fully specified (residue 5); printed as CSPD[K(N3)]HLGCISYC; also: azide of K(N3) in loop clicked via BCN linker to oligonucleotide 1590463
notes: also called Compound No. 1590463 conjugated to BCY17905
B9: 1609732-BCY17873 (peptide)
peptide: CSPDAHLGCISYCEPWX
modifications: not fully specified; as printed CSPDAHLGCISYCEPW[K(N3)]: N-terminal acetyl; C-terminal amide; three Cys bound to TATB scaffold; [K(N3)] 6-azido lysine at 17 joined via BCN linker to oligonucleotide 1609732
notes: also called Compound No. 1609732 conjugated to BCY17873
B10: 1590463-BCY17890 (peptide)
peptide: CSPDAHLGCISYCEXWX
modifications: not fully specified; as printed CSPDAHLGCISYCE[dP]W[K(N3)]: N-terminal acetyl; C-terminal amide; three Cys bound to TATB scaffold; [dP] D-proline at 15; [K(N3)] 6-azido lysine at 17 joined via BCN linker to oligonucleotide 1590463
notes: also called Compound No. 1590463 conjugated to BCY17890
B11: 1590463-BCY17904 (peptide)
peptide: Ac-CS[Lys(N3)]DAHLGCISYC-NH2
modifications: linker 1-9-13 via TATB; not fully specified (residue 3); printed as CS[K(N3)]DAHLGCISYC; also: azide of K(N3) in loop clicked via BCN linker to oligonucleotide 1590463
notes: also called Compound No. 1590463 conjugated to BCY17904
B12: 1590463-BCY17899 (peptide)
peptide: NWNCPXDAYLGCXSYCX
modifications: not fully specified; as printed NWNCP[HyP]DAYLGC[tBuGly]SYC[K(N3)]: N-terminal acetyl; C-terminal amide; three Cys bound to TATB scaffold; [HyP] 4-trans-hydroxy-L-proline at 6; [tBuGly] t-butyl glycine at 13; [K(N3)] 6-azido lysine at 17 joined via BCN linker to oligonucleotide 1590463
notes: also called Compound No. 1590463 conjugated to BCY17899
B13: 1602000-BCY17873 (peptide)
peptide: CSPDAHLGCISYCEPWX
modifications: as printed CSPDAHLGCISYCEPW[K(N3)]: N-terminal acetyl; C-terminal amide; three Cys bound to TATB scaffold; [K(N3)] 6-azido lysine at 17 joined to oligonucleotide 1602000 ([PEG1alkyne] linker)
notes: also called Compound No. 1602000 conjugated to BCY17873
B14: 1590463-BCY19406 (peptide)
peptide: Ac-CSPDAHLGCISYCEPW
modifications: linker 1-9-13 via TATB; not fully specified (C-terminus); printed as CSPDAHLGCISYCEPW[PEG24][K(N3)]; also: azide of C-terminal K(N3) clicked via BCN linker to oligonucleotide 1590463
notes: also called Compound No. 1590463 conjugated to BCY19406
B15: 1590463-BCY19407 (peptide)
peptide: CSPDAHLGCISYCEPWGGSGGSX
modifications: not fully specified; as printed CSPDAHLGCISYCEPWGGSGGS[K(N3)]: N-terminal acetyl; C-terminal amidated; three Cys bound to molecular scaffold; [K(N3)] 6-azido lysine at 23 joined via BCN linker to oligonucleotide 1590463
notes: also called Compound No. 1590463 conjugated to BCY19407
B16: 1590463-BCY19405 (peptide)
peptide: Ac-CSPDAHLGCISYCEPW
modifications: linker 1-9-13 via TATB; not fully specified (C-terminus); printed as CSPDAHLGCISYCEPW[PEG10][K(N3)]; also: azide of C-terminal K(N3) clicked via BCN linker to oligonucleotide 1590463
notes: also called Compound No. 1590463 conjugated to BCY19405
B17: 1590463-BCY17876 (peptide)
peptide: {oligonucleotide 1590463-BCN linker-azidopropyl}-CP[Hyp]DAYLGCISYC-NH2
modifications: linker 1-9-13 via TATB; reading uncertain; also: printed as CP[HyP]DAYLGCISYC
notes: also called Compound No. 1590463 conjugated to BCY17876
B18: 1590463-BCY17869 (peptide)
peptide: {oligonucleotide 1590463-BCN linker-azidopropyl″}-CSPDAHLGCISYC-NH2
modifications: linker 1-9-13 via TATB; reading uncertain
notes: also called Compound No. 1590463 conjugated to BCY17869
B19: 1590463-BCY17874 (peptide)
peptide: {oligonucleotide 1590463-BCN linker-azidopropyl}-CSPDAHLGCISYCEPW-NH2
modifications: linker 1-9-13 via TATB; reading uncertain
notes: also called Compound No. 1590463 conjugated to BCY17874
B20: 1590463-BCY17871 (peptide)
peptide: NWNCSPDAHLGCISYCX
modifications: not fully specified; as printed NWNCSPDAHLGCISYC[K(N3)]: N-terminal acetyl; C-terminal amide; three Cys bound to TATB scaffold; [K(N3)] 6-azido lysine at 17 joined via BCN linker to oligonucleotide 1590463
notes: also called Compound No. 1590463 conjugated to BCY17871
B21: 1590463-BCY17878 (peptide)
peptide: {oligonucleotide 1590463-BCN linker-azidopropyl}-CS[Hyp]DAHLGCISYC-NH2
modifications: linker 1-9-13 via TATB; reading uncertain; also: printed as CS[HyP]DAHLGCISYC
notes: also called Compound No. 1590463 conjugated to BCY17878
B22: 1590463-BCY17880 (peptide)
peptide: {oligonucleotide 1590463-BCN linker-azidopropyl}-CS[Aze]DAHLGCISYC-NH2
modifications: linker 1-9-13 via TATB; reading uncertain; also: printed as CiS[Aze]DAHLGCiiISYCiii
notes: also called Compound No. 1590463 conjugated to BCY17880
B23: 1590463-BCY17879 (peptide)
peptide: CSXDAHLGCISYCX
modifications: not fully specified; as printed CS[Aze]DAHLGCISYC[K(N3)]: N-terminal acetyl; C-terminal amide; three Cys bound to TATB scaffold; [Aze] azetidine at 3; [K(N3)] 6-azido lysine at 14 joined via BCN linker to oligonucleotide 1590463
notes: also called Compound No. 1590463 conjugated to BCY17879
B24: 1590463-BCY17868 (peptide)
peptide: CSPDAHLGCISYCX
modifications: not fully specified; as printed CSPDAHLGCISYC[K(N3)]: N-terminal acetyl; C-terminal amide; three Cys bound to TATB scaffold; [K(N3)] 6-azido lysine at 14 joined via BCN linker to oligonucleotide 1590463
notes: also called Compound No. 1590463 conjugated to BCY17868
B25: 1590463-BCY17870 (peptide)
peptide: NWNCSPDAHLGCISYCX
modifications: not fully specified; as printed NWNCSPDAHLGCISYC[K(N3)]: no N-terminal modification; C-terminal amide; three Cys bound to TATB scaffold; [K(N3)] 6-azido lysine at 17 joined via BCN linker to oligonucleotide 1590463
notes: also called Compound No. 1590463 conjugated to BCY17870
B26: 1590463-BCY17877 (peptide)
peptide: CSXDAHLGCISYCX
modifications: not fully specified; as printed CS[HyP]DAHLGCISYC[K(N3)]: N-terminal acetyl; C-terminal amide; three Cys bound to TATB scaffold; [HyP] 4-trans-hydroxy-L-proline at 3; [K(N3)] 6-azido lysine at 14 joined via BCN linker to oligonucleotide 1590463
notes: also called Compound No. 1590463 conjugated to BCY17877

Biological target: T1, hCD71-Nluc fusion protein (human, UniProt P02786 1-760)
T1 construct: whole, on cells; Used as crude membrane fractions of HEK293 cells stably expressing hCD71-Nluc; also called human transferrin receptor, CD71, fused to NanoLuc; not shown: NanoLuc (ProMega) luciferase joined through its N-terminal Val
T1 sequence (P02786 other isoform, or with tags, fused parts or gaps): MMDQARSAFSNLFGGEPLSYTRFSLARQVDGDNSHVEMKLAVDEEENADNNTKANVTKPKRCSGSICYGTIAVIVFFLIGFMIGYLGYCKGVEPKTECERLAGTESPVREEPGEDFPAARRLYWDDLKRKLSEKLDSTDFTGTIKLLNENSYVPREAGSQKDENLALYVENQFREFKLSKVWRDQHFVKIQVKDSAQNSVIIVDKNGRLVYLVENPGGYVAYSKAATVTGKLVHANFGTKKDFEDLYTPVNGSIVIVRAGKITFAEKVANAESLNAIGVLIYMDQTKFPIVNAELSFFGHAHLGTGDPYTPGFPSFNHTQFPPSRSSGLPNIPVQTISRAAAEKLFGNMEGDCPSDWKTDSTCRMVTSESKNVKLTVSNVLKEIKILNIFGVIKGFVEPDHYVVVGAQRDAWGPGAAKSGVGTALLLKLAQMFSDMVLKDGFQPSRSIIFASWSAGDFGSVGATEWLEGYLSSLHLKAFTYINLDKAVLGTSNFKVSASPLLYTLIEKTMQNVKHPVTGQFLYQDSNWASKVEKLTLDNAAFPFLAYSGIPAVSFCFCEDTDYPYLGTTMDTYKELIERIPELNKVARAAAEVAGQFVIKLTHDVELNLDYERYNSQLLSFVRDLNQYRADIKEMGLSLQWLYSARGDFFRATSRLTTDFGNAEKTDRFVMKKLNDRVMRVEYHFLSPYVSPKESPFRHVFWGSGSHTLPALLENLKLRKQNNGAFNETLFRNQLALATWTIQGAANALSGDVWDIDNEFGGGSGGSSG
Experiment: nanoBRET competition, tracer BCY17871-1598988 60 nM, HEK293 hCD71-Nluc membranes

Ki | Binder
1 nM | B1
0.3 nM | B2
1 nM | B3
2 nM | B4
1 nM | B5
24 nM | B6
3 nM | B7
16 nM | B8
1 nM | B9
2 nM | B10
5 nM | B11
1 nM | B12
1 nM | B13

Biological target: T1, hCD71-Nluc fusion protein
Experiment: as above
Remark: another data set of the same source
Protocol: (§1) The mixtures were incubated for 3 hours at room temperature to reach equilibrium. To initiate BRET, 12.4 μL of 100 μM of the Nluc substrate furimazine was added to each well, and the mixtures were incubated for 5-30 minutes. The assay plate was read on a Promega GlowMax Discover plate reader at wavelengths of 450 nm and 600 nm, and the ratio of emissions at wavelengths 450/600 were used to yield % BRET efficiency. Data was subjected to non-linear regression, then fitted to a single site binding hyperbolic function.
(§2) In order to evaluate modified oligonucleotides conjugated to CD71 bicycle ligands and RNAi compounds conjugated to CD71 bicycle ligands, the assay was modified as follows. […] Modified oligonucleotides were conjugated to the bicycle ligands through a SPAAC reaction These were then added at a range of concentrations in triplicate assays points, and the mixtures were incubated for 3 hours at room temperature. BRET was initiated with the addition of furimazine and the assay was completed as described above.

Ki | Binder
2 nM | B14
2 nM | B15
3 nM | B16

Biological target: T1, hCD71-Nluc fusion protein
Experiment: as above
Remark: another data set of the same source
Protocol: as §1, §2

Ki | Binder
2 nM | B1
1 nM | B2
11 nM | B3
23 nM | B4
10 nM | B5
55 nM | B7
10 nM | B9
20 nM | B10
60 nM | B11
4 nM | B12
36 nM | B13

Biological target: T2, CD71 (Homo sapiens (Human), UniProt P02786 89-760)
T2 construct: also called transferrin receptor; TfR1
T2 sequence (P02786 89-760 limits assumed, form in doubt): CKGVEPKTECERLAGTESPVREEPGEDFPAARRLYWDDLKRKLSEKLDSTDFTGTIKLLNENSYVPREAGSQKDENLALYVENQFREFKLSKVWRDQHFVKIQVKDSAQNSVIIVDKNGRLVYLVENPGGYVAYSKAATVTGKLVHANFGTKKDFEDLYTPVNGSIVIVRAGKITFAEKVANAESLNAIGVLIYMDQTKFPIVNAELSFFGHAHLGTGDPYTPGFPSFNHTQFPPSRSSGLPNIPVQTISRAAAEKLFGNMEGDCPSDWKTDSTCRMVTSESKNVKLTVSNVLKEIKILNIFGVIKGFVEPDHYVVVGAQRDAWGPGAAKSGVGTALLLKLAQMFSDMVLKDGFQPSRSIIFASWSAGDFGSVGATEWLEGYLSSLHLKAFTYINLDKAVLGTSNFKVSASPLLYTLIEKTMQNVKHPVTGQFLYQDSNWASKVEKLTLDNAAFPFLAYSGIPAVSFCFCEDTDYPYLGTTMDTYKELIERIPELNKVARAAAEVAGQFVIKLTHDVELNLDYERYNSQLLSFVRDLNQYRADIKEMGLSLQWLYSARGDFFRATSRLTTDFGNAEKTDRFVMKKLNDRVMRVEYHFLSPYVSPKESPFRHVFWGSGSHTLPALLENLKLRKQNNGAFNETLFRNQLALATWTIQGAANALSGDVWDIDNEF
Experiment: SPR Biacore X100, conjugate duplexed to biotin-DNA on streptavidin chip, CD71 injected 6.25-100 nM, 1:1 fit
Protocol: The binding affinity for each of the following modified oligonucleotides conjugated to CD71 bicycle ligands was tested on a Biacore X100 surface plasmon resonance (SPR) instrument. 200 units of modified oligonucleotides conjugated to CD71 bicycle ligand were immobilized on a streptavidin chip by injecting a 20 nM solution of 5′-Biotin-labeled DNA (5′-Biotin-TEG-DNA complement to modified oligonucleotide) duplexed with modified oligonucleotides conjugated to CD71 bicycle ligand in HBS—P (10 mM HEPES, pH 7.4, 150 mM NaCl, 0.0005% Surfactant P20) running buffer. […] Kinetic and equilibrium binding analysis was performed using Biacore X100 Evaluation Software, applying 1:1 binding fit.

Kd | Binder
95.4 nM | B17
14.5 nM | B18
32 nM | B19
2.4 nM | B20
126 nM | B21
8.2 nM | B22
31.2 nM | B23
0.9 nM | B24
0.1 nM | B25

Biological target: T1, hCD71-Nluc fusion protein
Experiment: nanoBRET competition, tracer BCY17871-1598988 60 nM, HEK293 hCD71-Nluc membranes
Remark: another data set of the same source
Protocol: as §1, §2

Ki | Binder
29 nM | B17
55 nM | B18
10 nM | B19
18 nM | B26
6 nM | B20
74 nM | B21
102 nM | B22
25 nM | B23
20 nM | B24
7 nM | B25

Biological target: T1, hCD71-Nluc fusion protein
Experiment: as above
Remark: another data set of the same source
Protocol: as §1, §2

Ki | Binder
2 nM | B1
1 nM | B2
11 nM | B3
8 nM | B5
125 nM | B6
23 nM | B7
148 nM | B8
17 nM | B10
31 nM | B11
4 nM | B12
